Results: JP2007300927A (dated 2007)
Substitutions are numbered along the chain they refer to.

T1: GC-1 (human, UniProt P51654 495-563)
T1 construct: Made in E. coli DH5α, purified on glutathione resin; also called GST融合タンパク質GC-1(Ser495からLys563); not shown: GST (glutathione S-transferase) of vector pGEX-4T-3 (Amersham), N-terminal to the GPC3 piece
T1 sequence: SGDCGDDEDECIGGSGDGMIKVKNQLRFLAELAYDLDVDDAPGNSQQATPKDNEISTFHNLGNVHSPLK

T2: GC-2 (human, UniProt P51654 510-563)
T2 construct: also called GST融合タンパク質GC-2(Gly510からLys563); not shown: GST (glutathione S-transferase) of vector pGEX-4T-3 (Amersham), N-terminal to the GPC3 piece
T2 sequence: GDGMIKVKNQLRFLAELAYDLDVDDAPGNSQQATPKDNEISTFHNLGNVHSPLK

T3: GC-3 (human, UniProt P51654 524-563)
T3 construct: also called GST融合タンパク質GC-3(Ala524からLys563); not shown: GST (glutathione S-transferase) of vector pGEX-4T-3 (Amersham), N-terminal to the GPC3 piece
T3 chain: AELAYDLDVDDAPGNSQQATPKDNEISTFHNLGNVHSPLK

B1: M5B9 (antibody, V domains shown)
VH: EVQLQQSGTVLARPGASVKMSCKASGYTFTGYWMHWVKQRPGQGLEWIGAIYPGNSDTNYNQKFKGKAKLTAVTSASTAYMELSSLTNEDAAVYHCTRSGDLTGGLAYWGQGTLVTVSA
VL: DIVMTQAAFSNPVTLGTSASISCRSSKSLLHSNGITYLYWFLQKPGQSPQLLIYQMSNLASGVPDRFSSSGSGTDFTLRISRVEAEDVGVYYCAQNLELPYTFGSGTKLEIK
notes: Mouse hybridoma antibody
B2: M10D2 (antibody, V domains shown)
VH: QVQLQQPGAELVKPGASVKLSCKASGYTFTSYWMHWVKQRPGQGLEWIGEIDPSDSYTYYNQKFRGKATLTVDKSSNTAYMQLSSLTSEDSAVYYCSRSNLGDGHYRFPAFPYWGQGTLVTVSA
VL: DIVLTQSPATLSVTPGDRVSLSCRASHSISNFLHWYPQKSHESPRLLIKYASQSISGIPSRFSGNGSGTDFTLSINSVETEDFGMYFCQQSNIWSLTFGAGTKLELK
notes: Mouse hybridoma antibody
B3: M11F1 (antibody, V domains shown)
VH: QVTLKESGPGILQPSQTLSLTCSFSGFSLSIYGMGVGWIRQPSGKGLEWLANIWWNDDKYYNSALKSRLTISKDTSNNQVFLKISSVDTADTATYYCAQIGYFYFDYWGQGTTLTVSS
VL: DVVMTQTPLSLPVSLGDQASISCRSSQSLVHSNGNTYLHWYLQKPGQSPKLLIYKVSNRFSGVPDRFSGSGSGTDFTLKISRVEAEDLGVYFCSQSTHVPWTFGGGTKLEIK
notes: Mouse hybridoma antibody
B4: GC199 (antibody, V domains shown)
VH: QIQLEQSGPELKKPGETVKISCKASGYIFRDYSMHWVKQAPGKGLKWMGWINTETGEPTYADDFKGRFAFSLETSASTAYLQINNLKNEDTATYFCTSLYWGQGTLVTVSA
VL: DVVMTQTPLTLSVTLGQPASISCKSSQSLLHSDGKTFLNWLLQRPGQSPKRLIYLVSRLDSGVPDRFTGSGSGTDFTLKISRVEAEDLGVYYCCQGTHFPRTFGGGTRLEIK
notes: Mouse hybridoma antibody from GC-3 immunisation; also called GC199抗体
B5: GC33 (antibody, V domains shown)
VH: QVQLQQSGAELVRPGASVKLSCKASGYTFTDYEMHWVKQTPVHGLKWIGALDPKTGDTAYSQKFKGKATLTADKSSSTAYMELRSLTSEDSAVYYCTRFYSYTYWGQGTLVTVSA
VL: B3 VL with S96N, W101P, G105S
notes: also called GC33抗体
B6: GC179 (antibody, V domains shown)
VH: EVQLVETGGGLVQPEGSLKLSCAASGFSFNINAMNWVRQAPGKGLEWVARIRSESNNYATYYGDSVKDRFTISRDDSQNMLYLQMNNLKTEDTAIYYCVREVTTSFAYWGQGTLVTVSA
VL: DIVMTQSAPSVPVTPGESVSISCKSSKSLLHSNGNTYLNWFLQRPGQSPQLLIYWMSNLASGVPDRFSGSGSGTAFTLRISRVEAEDVGVYYCMQHIEYPFTFGTGTKLEIK
notes: Mouse hybridoma antibody from GC-3 immunisation
B7: GC33マウス−ヒトキメラ抗体 (antibody, V domains shown)
VH: B5 VH
VL: B3 VL with S96N, W101P, G105S
notes: Mouse GC33 variable regions on human IgG1 and human κ constant regions (vectors HEFgγ1, HEFgκ); also called キメラGC33抗体; マウスGC33可変領域の抗体(mouse / mouse)

Legend:
[1] = biological target: T4, 可溶型GPC3コアタンパク質 (human, UniProt P51654 25-563); test: ELISA screening of hybridoma supernatant on immobilised soluble GPC3 core protein
T4 construct: also called 可溶型GPC3コア蛋白質; soluble GPC3 core protein; not shown: C-terminal His tag

[2] = biological target: T1, GC-1; test: Western blot of GST fusion proteins, reducing SDS-PAGE
[3] = biological target: T2, GC-2; test: as above
[4] = biological target: T3, GC-3; test: as above
[5] = biological target: T4, 可溶型GPC3コアタンパク質; test: ELISA, purified antibody from 10 μg/mL in 3-fold steps on immobilised soluble GPC3 core protein
[6] = biological target: T1, GC-1; test: Western blot of GST fusion proteins
[7] = biological target: T2, GC-2; test: Western blot of GST fusion proteins
[8] = biological target: T3, GC-3; test: Western blot of GST fusion proteins
[9] = biological target: T4, 可溶型GPC3コアタンパク質; test: ELISA screening on immobilised soluble GPC3 core protein
[10] = biological target: T4, 可溶型GPC3コアタンパク質; test: ELISA on GPC3 (Fig. 15); reference antibody of the comparison

| Binder | binding result [6] | binding result [7] | binding result [8] | binding result [9] | other results |
| --- | --- | --- | --- | --- | --- |
| B1 | – | – | – | – | binding result [1]: binds |
| B2 | – | – | – | – | binding result [1]: binds |
| B3 | – | – | – | – | binding result [2]: binds; binding result [3]: binds; binding result [4]: binds; binding result [5]: binds |
| B4 | binds | binds | binds | binds | – |
| B5 | binds | binds | binds | binds | – |
| B6 | binds | binds | binds | binds | – |
| B7 | – | – | – | – | binding result [10]: binds |
